Assay results taken from patent US20240226296A9, “ERT2 MUTANTS AND USES THEREOF” (Senti Biosciences, Inc., priority 2021, published 2024).
Substitutions are numbered along the chain they refer to. Numbers in names are those of the source.

B1: SB06142: L354I/L391V/N413D/M421L/S463P/M517A/H524L (protein)
chain: SAGDMRAANLWPSPLMIKRSKKNSLALSLTADQMVSALLDAEPPILYSEYDPTRPFSEASMMGLLTNLADREIVHMINWAKRVPGFVDLTLHDQVHLLECAWLEILMIGVVWRSMEHPVKLLFAPNLLLDRDQGKCVEGLVEIFDMLLATSSRFRMMNLQGEEFVCLKSIILLNSGVYTFLPSTLKSLEEKDHIHRVLDKITDTLIHLMAKAGLTLQQQHQRLAQLLLILSHIRHASNKGMELLYSMKCKNVVPLYDLLLEAADAHRLHAPTSRGGASVEETDQSHLATAGSTSSHSLQKYYITGEAEGFPATA
B2: SB06136: L384M/L391V/N413D/M421L/S463P/H524L (protein)
chain: B1 chain with I73L, L103M, A236M
B3: SB06145: L409V/N413D/Q414E/M421L/S463P/H524L (protein)
chain: B1 chain with I73L, V110L, L128V, Q133E, A236M

Legend:
[1] = following a typical clinical dose of tamoxifen; cited from earlier work
NK cells = assay: Validation of ERT2 mutants with mCherry reporter in NK cells; assay type: cell-based; settings: primary NK cells
Protocol: After 10 days of feeder cell activation, NK cells were co-transduced with ERT2 mutant virus and reporter SB01066 virus (Experimental Set-up 1). On Day 2 after transduction, transduced NK cells were treated with endoxifen or 4-OHT at a range of concentrations of 0 nM, 0.01 nM, 0.1 nM, 1 nM, and 10 nM. On Day 4, cells were checked for mCherry expression by flow cytometry.

Molecule | average peak plasma concentration [1] | 4-OHT concentration at which variant is sensitive (NK cells) | endoxifen concentration at which variant is sensitive (NK cells)
CC/C(=C(\c1ccccc1)c1ccc(OCCN(C)C)cc1)c1ccccc1 [tamoxifen] | approximately 40 ng/mL |  | 
B1 |  | 0.1 nM | 0.1 nM
B2 |  | 0.1 nM | 0.1 nM
B3 |  | 0.1 nM | 0.1 nM
